ACC/ACMC = fluorogenic leaving group
Legend:
[1] = biological target: T1, recombinant hepsin (Homo sapiens, UniProt P05981); assay: Activation of pro-uPA by hepsin, monitored with uPA substrate GTAR-acc; type: biochemical; parameters: made in house; settings: 1 nM recombinant hepsin, 100 μM GTAR-acc; FIG. 10 (squares)
Procedure: To test whether hepsin is capable of activating pro-uPA (and thereby potentially initiating this proteolytic cascade), uPA was screened through a coumarin-based substrate library and a substrate was designed to monitor uPA proteolytic activity. The substrate designed to monitor uPA activity is Acetyl-Gly-Thr-Ala-Arg-[7-amino-4-carbomoylcoumarin] (GTAR-acc). 2 μM of pro-uPA was incubated with 1 nM of recombinant hepsin and 100 μM of GTAR-acc.
Target sequence in this assay (P05981 whole entry): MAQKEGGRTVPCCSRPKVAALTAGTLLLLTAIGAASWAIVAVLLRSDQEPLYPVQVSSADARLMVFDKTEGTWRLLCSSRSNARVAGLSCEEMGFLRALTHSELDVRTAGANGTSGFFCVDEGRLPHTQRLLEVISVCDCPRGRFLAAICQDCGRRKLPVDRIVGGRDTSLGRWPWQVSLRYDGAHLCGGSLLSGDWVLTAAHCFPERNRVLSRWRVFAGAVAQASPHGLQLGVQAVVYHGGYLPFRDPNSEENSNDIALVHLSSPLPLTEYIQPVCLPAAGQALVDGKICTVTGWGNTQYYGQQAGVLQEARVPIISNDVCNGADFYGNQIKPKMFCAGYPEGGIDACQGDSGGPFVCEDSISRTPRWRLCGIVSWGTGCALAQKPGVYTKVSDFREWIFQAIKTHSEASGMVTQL

[2] = biological target: T1, recombinant hepsin; assay: Cleavage of fluorogenic tetrapeptide substrates by recombinant hepsin expressed in insect cells; type: biochemical; parameters: Hep136 (covering the prodomain and the catalytic domain); amino acids 46-417; honeybee melittin secretion signal (Mel) (N); made in house; host or cells: SP9 (Sf9) insect cells, baculovirus, pFastBac1; settings: with and without a histidine tag
Procedure: SP9 cells were infected with recombinant virus at a MOI of 5-10 and the activity of hepsin in the supernatant was monitored by the hydrolysis of a fluorogenic peptide, KRLR-ACC. […] To determine the optimal expression time, activity was monitored for 72 hours after infection.
The activity of hepsin expressed and purified as described above was tested using the following substrates, which were synthesized based on the substrate specificity profile from the positional scanning libraries described above: Acetyl-Pro-Arg-Leu-Arg-ACC/ACMC and Acetyl-Lys-Arg-Leu-Arg-ACC/ACMC.
Target sequence in this assay (P05981 46-417): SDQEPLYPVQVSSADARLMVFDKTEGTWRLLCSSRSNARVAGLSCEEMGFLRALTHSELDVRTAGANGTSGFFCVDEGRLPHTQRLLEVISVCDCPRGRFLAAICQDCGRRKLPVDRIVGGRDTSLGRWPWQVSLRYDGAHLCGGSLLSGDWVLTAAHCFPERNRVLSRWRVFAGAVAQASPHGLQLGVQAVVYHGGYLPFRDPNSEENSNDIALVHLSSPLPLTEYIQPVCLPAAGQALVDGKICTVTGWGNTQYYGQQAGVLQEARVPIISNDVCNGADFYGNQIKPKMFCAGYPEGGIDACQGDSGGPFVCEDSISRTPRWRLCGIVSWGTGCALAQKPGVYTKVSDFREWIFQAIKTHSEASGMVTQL

cleavage of GTAR-acc by hepsin [1]	cleavage by recombinant hepsin [2]	Substance
only marginally cleaves	–	Acetyl-Gly-Thr-Ala-Arg-[7-amino-4-carbomoylcoumarin] (Ac-GTAR-{7‑amino‑4‑carbamoylcoumarin}) [GTAR-acc]
–	efficiently cleaved	Acetyl-Pro-Arg-Leu-Arg-ACC/ACMC (Ac-PRLR-{ACC/ACMC}; also: C-terminal ACC/ACMC fluorophore) [N-acetyl tetrapeptide hepsin substrate with C-terminal coumarin fluorophore (ACC or ACMC)]
–	efficiently cleaved	Acetyl-Lys-Arg-Leu-Arg-ACC/ACMC (Ac-KRLR-{ACC/ACMC}; also: C-terminal ACC/ACMC fluorophore) [N-acetyl tetrapeptide hepsin substrate with C-terminal coumarin fluorophore (ACC or ACMC)]

From patent publication US20040009911A1, “Hepsin substrates and prodrugs” (IRM, LLC, priority 2002, published 2004)
